Reference: the supplement of paper PMC11316812
± gives the standard deviation of the averaged measurements.

What was measured:
hTERT-HMEC = assay: percentage of EdU-negative (G0-arrested) nuclei per well, 72 h; higher = more G0 arrest; conditions: reference: sequence is the full UniProt precursor, the tested protein was the secreted form or ectodomain
MCF7 = assay: as above; conditions: reference: sequence is the full UniProt precursor, the tested protein was the secreted form or ectodomain
[1] = protein concentration 0.02117 µM
[2] = protein concentration 0.2117 µM
[3] = protein concentration 0.0153175 µM
[4] = protein concentration 0.153175 µM
[5] = protein concentration 0.0225 µM
[6] = protein concentration 0.01025 µM
[7] = protein concentration 0.1025 µM
[8] = protein concentration 0.03125 µM
[9] = protein concentration 0.3125 µM
[10] = protein concentration 0.02778 µM
[11] = protein concentration 0.2778 µM
[12] = protein concentration 0.021155 µM
[13] = protein concentration 0.21155 µM
[14] = protein concentration 0.0135 µM
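Also: secreted proteins added to cultured cells, EdU pulse at the end, nuclei found by Hoechst imaging, EdU status from nuclear versus surrounding ring intensity ratio, PBS as neutral control.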

## MSPLLRRLLLAALLQLAPAQAPVSQPDAPGHQRKVVSWIDVYTRATCQPREVVVPLTVELMGTVAKQLVPSCVTVQRCGGCCPDDGLECVPTGQHQVRMQILMIRYPSSQLGEMSLEEHSQCECRPKKKDSAVKPDRAATPHHRPQPRSVPGWDSAPGAPSPADITHPTPAPGPSAHAAPSTTSALTPGPAAAAADAAASSVAKGGA
hTERT-HMEC; [1]
  percentage of EdU-negative: 4.57 ± 0.19%
hTERT-HMEC; [2]
  percentage of EdU-negative: 6.4 ± 1.3%
MCF7; [1]
  percentage of EdU-negative: 25 ± 0.51%
MCF7; [2]
  percentage of EdU-negative: 26.88 ± 0.25%

## MSPNFKLQCHFILIFLTALRGESRYLELREAADYDPFLLFSANLKRELAGEQPYRRALRCLDMLSLQGQFTFTADRPQLHCAAFFISEPEEFITIHYDQVSIDCQGGDFLKVFDGWILKGEKFPSSQDHPLPSAERYIDFCESGLSRRSIRSSQNVAMIFFRVHEPGNGFTLTIKTDPNLFPCNVISQTPNGKFTLVVPHQHRNCSFSIIYPVVIKISDLTLGHVNGLQLKKSSAGCEGIGDFVELLGGTGLDPSKMTPLADLCYPFHGPAQMKVGCDNTVVRMVSSGKHVNRVTFEYRQLEPYELENPNGNSIGEFCLSGL
hTERT-HMEC; [3]
  percentage of EdU-negative: 5.2 ± 0.25%
hTERT-HMEC; [4]
  percentage of EdU-negative: 6.58 ± 0.22%
MCF7; [3]
  percentage of EdU-negative: 25.7 ± 1.4%
MCF7; [4]
  percentage of EdU-negative: 28.3 ± 0.6%

## MSPSPTALFCLGLCLGRVPAQSGPLPKPSLQALPSSLVPLEKPVTLRCQGPPGVDLYRLEKLSSSRYQDQAVLFIPAMKRSLAGRYRCSYQNGSLWSLPSDQLELVATGVFAKPSLSAQPGPAVSSGGDVTLQCQTRYGFDQFALYKEGDPAPYKNPERWYRASFPIITVTAAHSGTYRCYSFSSRDPYLWSAPSDPLELVVTGTSVTPSRLPTEPPSPVAEFSEATAELTVSFTNEVFTTETSRSITASPKESDSPAGPARQYYTKGNLVRICLGAVILIILAGFLAEDWHSRRKRLRHRGRAVQRPLPPLPPLPLTRKSNGGQDGGRQDVHSRGLCS [Q9HCN6]
hTERT-HMEC; [5]
  percentage of EdU-negative: 4.56 ± 0.87%
hTERT-HMEC; protein concentration 0.225 µM
  percentage of EdU-negative: 5.35 ± 0.6%
MCF7; [5]
  percentage of EdU-negative: 24.78 ± 0.15%
MCF7; protein concentration 0.225 µM
  percentage of EdU-negative: 24.9 ± 1.1%

## MSRELAPLLLLLLSIHSALAMRICSFNVRSFGESKQEDKNAMDVIVKVIKRCDIILVMEIKDSNNRICPILMEKLNRNSRRGITYNYVISSRLGRNTYKEQYAFLYKEKLVSVKRSYHYHDYQDGDADVFSREPFVVWFQSPHTAVKDFVIIPLHTTPETSVKEIDELVEVYTDVKHRWKAENFIFMGDFNAGCSYVPKKAWKNIRLRTDPRFVWLIGDQEDTTVKKSTNCAYDRIVLRGQEIVSSVVPKSNSVFDFQKAYKLTEEEALDVSDHFPVEFKLQSSRAFTNSKKSVTLRKKTKSKRS
hTERT-HMEC; [6]
  percentage of EdU-negative: 4.824 ± 0.022%
hTERT-HMEC; [7]
  percentage of EdU-negative: 5.74 ± 0.076%
MCF7; [6]
  percentage of EdU-negative: 28.5 ± 1.3%
MCF7; [7]
  percentage of EdU-negative: 27 ± 2%

## MSRGLQLLLLSCAYSLAPATPEVKVACSEDVDLPCTAPWDPQVPYTVSWVKLLEGGEERMETPQEDHLRGQHYHQKGQNGSFDAPNERPYSLKIRNTTSCNSGTYRCTLQDPDGQRNLSGKVILRVTGCPAQRKEETFKKYRAEIVLLLALVIFYLTLIIFTCKFARLQSIFPDFSKAGMERAFLPVTSPNKHLGLVTPHKTELV
hTERT-HMEC; [5]
  percentage of EdU-negative: 4.68 ± 0.067%
hTERT-HMEC; protein concentration 0.225 µM
  percentage of EdU-negative: 8.57 ± 0.3%
MCF7; [5]
  percentage of EdU-negative: 25.6 ± 5.2%
MCF7; protein concentration 0.225 µM
  percentage of EdU-negative: 25.7 ± 2.3%

## MSRLPVLLLLQLLVRPGLQAPMTQTTPLKTSWVNCSNMIDEIITHLKQPPLPLLDFNNLNGEDQDILMENNLRRPNLEAFNRAVKSLQNASAIESILKNLLPCLPLATAAPTRHPIHIKDGDWNEFRRKLTFYLKTLENAQAQQTTLSLAIF
hTERT-HMEC; [8]
  percentage of EdU-negative: 5.21 ± 0.57%
hTERT-HMEC; [9]
  percentage of EdU-negative: 4.85 ± 0.58%
MCF7; [8]
  percentage of EdU-negative: 27.8 ± 0.94%
MCF7; [9]
  percentage of EdU-negative: 23.6 ± 1.8%

## MSRPQLRRWRLVSSPPSGVPGLALLALLALLALRLAAGTDCPCPEPELCRPIRHHPDFEVFVFDVGQKTWKSYDWSQITTVATFGKYDSELMCYAHSKGARVVLKGDVSLKDIIDPAFRASWIAQKLNLAKTQYMDGINIDIEQEVNCLSPEYDALTALVKETTDSFHREIEGSQVTFDVAWSPKNIDRRCYNYTGIADACDFLFVMSYDEQSQIWSECIAAANAPYNQTLTGYNDYIKMSINPKKLVMGVPWYGYDYTCLNLSEDHVCTIAKVPFRGAPCSDAAGRQVPYKTIMKQINSSISGNLWDKDQRAPYYNYKDPAGHFHQVWYDNPQSISLKATYIQNYRLRGIGMWNANCLDYSGDAVAKQQTEEMWEVLKPKLLQR
hTERT-HMEC; [10]
  percentage of EdU-negative: 5.6 ± 0.68%
hTERT-HMEC; [11]
  percentage of EdU-negative: 6.64 ± 0.1%
MCF7; [10]
  percentage of EdU-negative: 25.1 ± 3.2%
MCF7; [11]
  percentage of EdU-negative: 24.6 ± 1.1%

## MSRQLLPVLLLLLLRASCPWGQEQGARSPSEEPPEEEIPKEDGILVLSRHTLGLALREHPALLVEFYAPWCGHCQALAPEYSKAAAVLAAESMVVTLAKVDGPAQRELAEEFGVTEYPTLKFFRNGNRTHPEEYTGPRDAEGIAEWLRRRVGPSAMRLEDEAAAQALIGGRDLVVIGFFQDLQDEDVATFLALAQDALDMTFGLTDRPRLFQQFGLTKDTVVLFKKFDEGRADFPVDEELGLDLGDLSRFLVTHSMRLVTEFNSQTSAKIFAARILNHLLLFVNQTLAAHRELLAGFGEAAPRFRGQVLFVVVDVAADNEHVLQYFGLKAEAAPTLRLVNLETTKKYAPVDGGPVTAASITAFCHAVLNGQVKPYLLSQEIPPDWDQRPVKTLVGKNFEQVAFDETKNVFVKFYAPWCTHCKEMAPAWEALAEKYQDHEDIIIAELDATANELDAFAVHGFPTLKYFPAGPGRKVIEYKSTRDLETFSKFLDNGGVLPTEEPPEEPAAPFPEPPANSTMGSKEEL
hTERT-HMEC; [12]
  percentage of EdU-negative: 5.52 ± 0.95%
hTERT-HMEC; [13]
  percentage of EdU-negative: 5.36 ± 0.59%
MCF7; [12]
  percentage of EdU-negative: 34 ± 1.9%
MCF7; [13]
  percentage of EdU-negative: 26.76 ± 0.05%

## MSRREGSLEDPQTDSSVSLLPHLEAKIRQTHSLAHLLTKYAEQLLQEYVQLQGDPFGLPSFSPPRLPVAGLSAPAPSHAGLPVHERLRLDAAALAALPPLLDAVCRRQAELNPRAPRLLRRLEDAARQARALGAAVEALLAALGAANRGPRAEPPAATASAASATGVFPAKVLGLRVCGLYREWLSRTEGDLGQLLPGGSA
hTERT-HMEC; [5]
  percentage of EdU-negative: 4.52 ± 0.57%
hTERT-HMEC; protein concentration 0.225 µM
  percentage of EdU-negative: 6.17 ± 0.093%
MCF7; [5]
  percentage of EdU-negative: 25.7 ± 2.9%
MCF7; protein concentration 0.225 µM
  percentage of EdU-negative: 26.5 ± 1.6%

## MSSAAGFCASRPGLLFLGLLLLPLVVAFASAEAEEDGDLQCLCVKTTSQVRPRHITSLEVIKAGPHCPTAQLIATLKNGRKICLDLQAPLYKKIIKKLLES
hTERT-HMEC; [8]
  percentage of EdU-negative: 5.71 ± 0.5%
hTERT-HMEC; [9]
  percentage of EdU-negative: 5.011 ± 0.0019%
MCF7; [8]
  percentage of EdU-negative: 23.9 ± 0.55%
MCF7; [9]
  percentage of EdU-negative: 26.1 ± 3.4%

## MSSAARSRLTRATRQEMLFLALLLLPVVVAFARAEAEEDGDLQCLCVKTTSQVRPRHITSLEVIKAGPHCPTAQLIATLKNGRKICLDLQALLYKKIIKEHLES
hTERT-HMEC; [5]
  percentage of EdU-negative: 5.03 ± 0.052%
hTERT-HMEC; protein concentration 0.225 µM
  percentage of EdU-negative: 5.8 ± 0.41%
MCF7; [5]
  percentage of EdU-negative: 25.1 ± 0.73%
MCF7; protein concentration 0.225 µM
  percentage of EdU-negative: 24.9 ± 0.32%

## MSSEEGKLFVGGLNFNTDEQALEDHFSSFGPISEVVVVKDRETQRSRGFGFITFTNPEHASVAMRAMNGESLDGRQIRVDHAGKSARGTRGGGFGAHGRGRSYSRGGGDQGYGSGRYYDSRPGGYGYGYGRSRDYNGRNQGGYDRYSGGNYRDNYDN
hTERT-HMEC; [14]
  percentage of EdU-negative: 5 ± 0.36%
hTERT-HMEC; protein concentration 0.135 µM
  percentage of EdU-negative: 8.05 ± 0.55%
MCF7; [14]
  percentage of EdU-negative: 25.1 ± 3.6%
MCF7; protein concentration 0.135 µM
  percentage of EdU-negative: 27 ± 1.7%

## MSSENCFVAENSSLHPESGQENDATSPHFSTRHEGSFQVPVLCAVMNVVFITILIIALIALSVGQYNCPGQYTFSMPSDSHVSSCSEDWVGYQRKCYFISTVKRSWTSAQNACSEHGATLAVIDSEKDMNFLKRYAGREEHWVGLKKEPGHPWKWSNGKEFNNWFNVTGSDKCVFLKNTEVSSMECEKNLYWICNKPYK
hTERT-HMEC; [5]
  percentage of EdU-negative: 5.44 ± 1.4%
hTERT-HMEC; protein concentration 0.225 µM
  percentage of EdU-negative: 5.3 ± 0.56%
MCF7; [5]
  percentage of EdU-negative: 23.5 ± 0.69%
MCF7; protein concentration 0.225 µM
  percentage of EdU-negative: 23.6 ± 0.57%

## MSSFGYRTLTVALFTLICCPGSDEKVFEVHVRPKKLAVEPKGSLEVNCSTTCNQPEVGGLETSLDKILLDEQAQWKHYLVSNISHDTVLQCHFTCSGKQESMNSNVSVYQPPRQVILTLQPTLVAVGKSFTIECRVPTVEPLDSLTLFLFRGNETLHYETFGKAAPAPQEATATFNSTADREDGHRNFSCLAVLDLMSRGGNIFHKHSAPKMLEIYEPVSDSQMVIIVTVVSVLLSLFVTSVLLCFIFGQHLRQQRMGTYGVRAAWRRLPQAFRP
hTERT-HMEC; [5]
  percentage of EdU-negative: 5.54 ± 0.21%
hTERT-HMEC; protein concentration 0.225 µM
  percentage of EdU-negative: 6.02 ± 0.093%
MCF7; [5]
  percentage of EdU-negative: 24.9 ± 0.91%
MCF7; protein concentration 0.225 µM
  percentage of EdU-negative: 27.28 ± 0.18%

## MSSFSTTTVSFLLLLAFQLLGQTRANPMYNAVSNADLMDFKNLLDHLEEKMPLEDEVVPPQVLSEPNEEAGAALSPLPEVPPWTGEVSPAQRDGGALGRGPWDSSDRSALLKSKLRALLTAPRSLRRSSCFGGRMDRIGAQSGLGCNSFRY
hTERT-HMEC; [5]
  percentage of EdU-negative: 4.9 ± 0.49%
hTERT-HMEC; protein concentration 0.225 µM
  percentage of EdU-negative: 6.92 ± 0.56%
MCF7; [5]
  percentage of EdU-negative: 25 ± 2.1%
MCF7; protein concentration 0.225 µM
  percentage of EdU-negative: 25.7 ± 1.1%

## MSSSCSGLSRVLVAVATALVSASSPCPQAWGPPGVQYGQPGRSVKLCCPGVTAGDPVSWFRDGEPKLLQGPDSGLGHELVLAQADSTDEGTYICQTLDGALGGTVTLQLGYPPARPVVSCQAADYENFSCTWSPSQISGLPTRYLTSYRKKTVLGADSQRRSPSTGPWPCPQDPLGAARCVVHGAEFWSQYRINVTEVNPLGASTRLLDVSLQSILRPDPPQGLRVESVPGYPRRLRASWTYPASWPCQPHFLLKFRLQYRPAQHPAWSTVEPAGLEEVITDAVAGLPHAVRVSARDFLDAGTWSTWSPEAWGTPSTGTIPKEIPAWGQLHTQPEVEPQVDSPAPPRPSLQPHPRLLDHRDSVEQVAVLASLGILSFLGLVAGALALGLWLRLRRGGKDGSPKPGFLASVIPVDRRPGAPNL
hTERT-HMEC; [8]
  percentage of EdU-negative: 4.53 ± 0.46%
hTERT-HMEC; [9]
  percentage of EdU-negative: 11.8 ± 0.14%
MCF7; [8]
  percentage of EdU-negative: 26.9 ± 2%
MCF7; [9]
  percentage of EdU-negative: 36.6 ± 0.72%
